Measured values from US20100204100A1, “BIOLOGICAL AGENTS ACTIVE IN CENTRAL NERVOUS SYSTEM” (THE JOHNS HOPKINS UNIVERISTY, priority 2007, published 2010).
Entries after “also recorded” stand apart in the source; their conditions may differ.

Experiments:
[1] = Baseline paw withdrawal threshold after peptide injection; type: in vivo, mouse; conditions: mice without CFA, vs vehicle
Protocol: Behavioral Analysis. Mechanical sensitivity of the mice was measured with von Frey filaments (Stoelting, Wood Dale, Ill.) as described previously (Yang and Gereau, 2003). Mice were placed in Plexiglas testing boxes with a 1×1 cm^2 wire-mesh grid floor and habituated for 3 h before experiments. Each von Frey filament was applied to the mouse hind paw in ascending order until it bent at approximately 30° for about 3 s. The smallest filament that evoked a paw withdrawal response was taken as the mechanical threshold (paw withdrawal threshold). Similar sites were selected for measuring mechanical thresholds in all tested animals, and the thresholds were measured at approximately the same site throughout the experiment for each individual animal. Two to three measurements were made before CFA or fusion peptides injection, and the average was calculated as the baseline. Established inflammatory pain behaviors were induced by intraplantar injection of CFA solution (20 μl, 1 mg/ml). […] The effect of Tat fusion peptide on CFA-induced established inflammatory pain behaviors was expressed as % of baseline.

[2] = Tests for locomotor function (placing, grasping, righting reflexes); type: in vivo, mouse; conditions: unanesthetized mice, 4 h after intraperitoneal injection, vs vehicle
Source text: Tests for Locomotor Function. Four hours after intraperitoneal injection of Tat fusion peptides, their effects on locomotor function were examined with the following tests as described previously (Coderre and Van, 1,1994; Tao, et al., 2003a). 1) Placing reflex: The mouse was held with hind limbs slightly lower than forelimbs and the dorsal surface of the hind paws was brought into contact with the edge of a table. The experimenter recorded whether the mouse placed its hind paws on the table surface reflexively; 2) Grasping reflex: The mouse was placed on a wire grid and the experimenter recorded whether the hind paws grasped the wire on contact; and 3) Righting reflex: The mouse was placed on its back on a flat surface and the experimenter noted whether it immediately assumed the normal upright position.
The effects of Tat fusion peptides on locomotor function were examined 4 h after intraperitoneal injection. The following tests were performed as described previously^23. 1) Placing reflex: The mouse was held with hind limbs slightly lower than forelimbs, and the dorsal surface of the hind paws was brought into contact with the edge of a table. The experimenter recorded whether the mouse placed its hind paws on the table surface reflexively; 2) Grasping reflex: The mouse was placed on a wire grid, and the experimenter recorded whether the hind paws grasped the wire on contact.

cultured spinal neurons = test: In vitro delivery of Tat fusion peptide in cultured spinal neurons (Western blot, anti-His antibody); type: cell-based; conditions: 10 μM peptide, 30 min incubation, cultured mouse spinal neurons
Protocol: In Vitro Delivery of Tat Fusion Peptide in Cultured Spinal Neurons. The intracellular delivery of Tat fusion peptide was assessed by Western blot analysis 30 min after application of 10 μM Tat-PSD-95 PDZ2 to cultured spinal neurons. The same dose of PSD-95 PDZ2 without Tat served as a control. Spinal cord neuronal cultures were prepared as previously described (O'Brien, et al., 1997) with minor modification. In brief, embryonic day 14 mouse spinal cord was digested for 45 min at 34° C. Cells were gently dissociated with a 5-ml pipette, filtered through a 70-μm filter, and centrifuged through a solution of 1% soybean trypsin inhibitor and 1% bovine serum albumin at 80×g for 10 min. High-density cultures were plated at 2 million cells/60-mm dish. Cell lysates from high-density cultures were solubilized in 1% Triton X-100/0.2% sodium dodecyl sulfate (SDS) and subjected to SDS-polyacrylamide gel electrophoresis (SDS-PAGE). Proteins were immunoblotted with monoclonal anti-His antibody (Sigma) and visualized with enhanced chemiluminescence (Amersham Biosciences, Piscataway, N.J.).

B1: Tat-PSD-95 PDZ2: His-tagged fusion peptide: HIV Tat minimal transduction domain (residues 47-57) fused to the second PDZ domain of PSD-95 (protein)
chain: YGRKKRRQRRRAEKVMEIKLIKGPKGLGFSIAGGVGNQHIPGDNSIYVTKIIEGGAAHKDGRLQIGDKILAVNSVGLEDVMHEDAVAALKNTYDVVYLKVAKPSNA
[1]
  effect on baseline paw withdrawal threshold: no significant effect
[2]
  effect on locomotor function (placing, grasping, righting reflexes): no effect; also recorded: did not show any effect
Cultured spinal neurons
  His-peptide detected in neurons (intracellular delivery), Western blotting with anti-His antibody: detected only; also recorded: only detected
